Experimental data taken from the supplement of paper PMC12042874.
± gives the uncertainty stated by the source.

Assay: amyloid nucleation score (Sup35N fusion, yeast selection) (log enrichment); library NNK2; higher = more nucleation; inactive = no reads after selection
Procedure, shortened: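 The nucleation score, computed with DiMSum, is the log enrichment of output over input reads, centred on the mode score of non-aggregating sequences. Sequences with under 100 input reads were dropped. Reads were generated by Illumina sequencing of plasmid inserts from psi-negative yeast with Sup35N fused to peptides of 20 random codons, induced with 100 μM copper sulfate for 24 hours and grown 7 days at 30°C on medium lacking adenine and uracil.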
Work on SLYLRSRSRISFMGVGQKEL yielded an amyloid nucleation score of 3.28 ± 0.11. For SMFIVHSCSTWLTNNGLNHM, the amyloid nucleation score was 3.19 ± 0.16. With SMGLSC the amyloid nucleation score was “inactive”. In the case of SMGMLP, the amyloid nucleation score is reported as -0.641 ± 1.1. In the case of SMGSPETC, the amyloid nucleation score is reported as -0.47 ± 1.1. In the case of SMGYYDLFELYPNRHGYYGF, the amyloid nucleation score is reported as “inactive”. Substance SMLEDRYHSALTENRRDWKQ has an amyloid nucleation score of 0.564 ± 0.28. SMLGKRIFYRCSRLMHNF showed an amyloid nucleation score of -0.175 ± 0.27. SMNSLSIVYLDYASGAWMDL showed an amyloid nucleation score of -0.127 ± 0.49. For SMNVRTKLDWSTTRVDSGLR, the amyloid nucleation score was 0.662 ± 0.21. Work on SMQCPLAAQTDM yielded an amyloid nucleation score of -0.301 ± 0.45. In the case of SMQFFFRS, the amyloid nucleation score is reported as 6.51 ± 0.072. For SMQFLCYKKLC, the amyloid nucleation score was -0.565 ± 1.1. For SMQKG, the amyloid nucleation score was “inactive”. Substance SMRDEVYIRFFMNRILSVRS has an amyloid nucleation score of -0.803 ± 1. In the case of SMSKYAISYKLVVRKKYRSG, the amyloid nucleation score is reported as 1.83 ± 0.11. For SMTVKDSGFMSIFGFSTVRL, the amyloid nucleation score was -0.854 ± 0.48. SMWWY showed an amyloid nucleation score of -0.505 ± 1.1. In the case of SMYLCDK, the amyloid nucleation score is reported as -0.621 ± 0.48. For SMYSLTVVNLRVRFLVVWGW, the amyloid nucleation score was 0.615 ± 0.5. Work on SNAVLWNTGIFIKKYC yielded an amyloid nucleation score of -1.38 ± 0.64. Work on SNEHKYFQNIATNVLV yielded an amyloid nucleation score of -0.371 ± 0.64. SNEPIGTASLHDYVGPRVST showed an amyloid nucleation score of -0.332 ± 0.44. In the case of SNFLVYS, the amyloid nucleation score is reported as -0.636 ± 0.61. Work on SNHVKCGWICKFSLRIQSVY yielded an amyloid nucleation score of 0.129 ± 0.65. With SNSGINHIRCCLYPLFYLIM the amyloid nucleation score was 2.35 ± 0.13. Work on SNSLQFYDLKSCDWGVWRCE yielded an amyloid nucleation score of 4.768 ± 0.038. For SNSYGGDTQRY, the amyloid nucleation score was -0.517 ± 0.33. SNVLFLVLHRGRVKAVSRNE showed an amyloid nucleation score of -0.783 ± 1. With SNVLTVIVCYTKAWINKSFM the amyloid nucleation score was “inactive”. Work on SNVWAQ yielded an amyloid nucleation score of 0.571 ± 0.57. With SNWFLWHTSTRFMIKENIMY the amyloid nucleation score was 0.516 ± 0.74. SPCLVLL showed an amyloid nucleation score of 0.2 ± 0.28. SPCMCGYITINSLRPLLTFS gave an amyloid nucleation score of 5.797 ± 0.03. Work on SPFRTDHVF yielded an amyloid nucleation score of -0.311 ± 0.33. In the case of SPFTTSRDFMHRTPLLCDTC, the amyloid nucleation score is reported as 1.32 ± 0.33. Substance SPGIARDLANRILVTIRWVS has an amyloid nucleation score of 1.25 ± 0.32. In the case of SPGYTMKGFRWWLLSILGAR, the amyloid nucleation score is reported as “inactive”. SPRLAGVWVH showed an amyloid nucleation score of -0.669 ± 0.63. For SPSSQSKVISCLRVS, the amyloid nucleation score was 0.611 ± 0.81. With SPVVADQPWCSI the amyloid nucleation score was 0.321 ± 0.64. In the case of SPWGPLLAFTSKTNPIQWMT, the amyloid nucleation score is reported as -0.196 ± 0.46. For SQALCDGALYTHFAISSIDR, the amyloid nucleation score was “inactive”. With SQFAVRKEGTDSEEFLKSVV the amyloid nucleation score was -0.197 ± 0.48. SQHGVKNLSSRFESLIA showed an amyloid nucleation score of -0.197 ± 0.79. In the case of SQHSVARIANGLLTSGTMVL, the amyloid nucleation score is reported as 0.875 ± 0.36. For SQIRFWSRPRDCFGFLMRYV, the amyloid nucleation score was -0.852 ± 1. SQLVMHYKQVC showed an amyloid nucleation score of 1.82 ± 0.14. With SQSKNDQ the amyloid nucleation score was 0.257 ± 0.34. With SRAGECSSWGHIYGLCVDLR the amyloid nucleation score was -0.897 ± 0.55. With SRAKNLHSFKSNMCDAFSYN the amyloid nucleation score was “inactive”. For SRFLFCVPHVDCWLLTWNLS, the amyloid nucleation score was 6.68 ± 0.073. SRFLLKDKSNTSGVMQLGMW gave an amyloid nucleation score of -0.374 ± 0.41. Substance SRFYILRL has an amyloid nucleation score of 2.25 ± 0.098. In the case of SRGWTRMRSYVVSSDFILLK, the amyloid nucleation score is reported as 0.178 ± 0.48. SRHKFRSITFIEIHPMI showed an amyloid nucleation score of 0.012 ± 0.43. SRHRLAMRTAGTRVVSCWG gave an amyloid nucleation score of 0.285 ± 0.3. SRIEHMACLRRP gave an amyloid nucleation score of 0.496 ± 0.66. Work on SRIIMSFTSGLCDNHSKLKC yielded an amyloid nucleation score of 1.68 ± 0.19. Substance SRKSFLLCILLCSITLPLAR has an amyloid nucleation score of -1.09 ± 0.44. SRNTVLYISLSFLTPYISCC gave an amyloid nucleation score of 8.221 ± 0.028. With SRTSSKAYTPYFVSRGHDRY the amyloid nucleation score was -0.903 ± 0.76. Work on SRVGFFS yielded an amyloid nucleation score of 0.072 ± 1.1. SRVIWHDSQLFVVFSSTAYK showed an amyloid nucleation score of 4.04 ± 0.041. SRVSLYQML gave an amyloid nucleation score of -1.01 ± 0.34. With SRYACVRLICQVWPLWVGSG the amyloid nucleation score was 0.875 ± 0.43. For SRYGWMNRWKQPVQVVNPGF, the amyloid nucleation score was 0.031 ± 0.38. For SRYIM, the amyloid nucleation score was -1.06 ± 1.1. In the case of SRYLSVIYYHRSNTWLRDRE, the amyloid nucleation score is reported as “inactive”. SSCLIG gave an amyloid nucleation score of 0.28 ± 0.43. Work on SSFFLGLPPIREIGPWTTQR yielded an amyloid nucleation score of 0.168 ± 0.27. In the case of SSFFPRQ, the amyloid nucleation score is reported as -0.767 ± 0.76. Work on SSGRGIRLTLTVSIDRKKMG yielded an amyloid nucleation score of -0.391 ± 0.4. Substance SSIGKGFSNSYGHAYCKHTW has an amyloid nucleation score of -0.124 ± 0.76. With SSIKSSKIGAGGSL the amyloid nucleation score was -0.213 ± 0.79. Substance SSKFTHDYGGEDIVIDQDES has an amyloid nucleation score of 0.14 ± 0.53. With SSKYYA the amyloid nucleation score was -0.131 ± 0.32. Substance SSLCIRSAL has an amyloid nucleation score of -0.092 ± 0.63. Substance SSLDRKAVLAILSSTYLLRL has an amyloid nucleation score of 2.33 ± 0.23. SSLGA gave an amyloid nucleation score of -0.059 ± 0.5. SSMLPYSRHTIRVTKVRPPF showed an amyloid nucleation score of 0.561 ± 0.62. In the case of SSMLYTYVRLMNMNNIYVAS, the amyloid nucleation score is reported as 0.737 ± 0.62. SSNFRLSLWYSKMM gave an amyloid nucleation score of -0.246 ± 0.36. SSNHTPTVVMHDHIPVLNFR gave an amyloid nucleation score of -0.628 ± 0.63. In the case of SSNSEDDGNWMMLLSNKYRI, the amyloid nucleation score is reported as 0.559 ± 0.27. In the case of SSPHWSK, the amyloid nucleation score is reported as -0.051 ± 0.37. Substance SSRRGNDGWRCGPSCGGCTG has an amyloid nucleation score of 3.65 ± 0.082.
